No end group written: not given here.
Key:
[1] = target: T1, cell surface antigen PSMA (Homo sapiens, UniProt Q04609); assay: Immunofluorescence detection of KHL peptide (FITC marker) on Lncap cell line; format: binding
T1 construct: endogenous in cells; host or cells: Lncap cells (PC3 cells as low-PSMA control)
Description: (§1) Immunofluorescence detection was performed on KHL peptides in Lncap cell lines with high PSMA expression and PC3 cell lines with low PSMA expression, using FITC as the fluorescent marker. The fluorescence detection of KHL peptide and Lncap cell line is shown in FIG. 1, and the fluorescence detection of KHL peptide and PC3 cell line is shown in FIG. 2.

PSMA = PSMA (Homo sapiens, UniProt Q04609); assay: Phage display peptide library (Ph.D.-12) screening for peptide binding to PSMA; settings: three rounds of panning, Ph.D.-12 phage display library
Description: The present disclosure uses the Ph.D.-12 phage display peptide library kit to screen peptide KHL that specifically binds to PSMA.
Random twelve peptide phage display library: 100 μL. 1.5×10^13 pfu/mL, stored in TBS solution containing 50% glycerol, complexity-2.7×10^9 transformants-28gIII sequencing primers: 5′-HOGATTGGGATTTGCTAACAAC-3′, 100 pmol, 1 pmol/μL-96 g III sequencing primer: 5′-HOCCTCATATAGTTAGCGTAGCGTAACG-3′, 100 pmol/1 pmol/μL; E. Coli ER2738 Host bacterium F′laclq Δ(lacZ) M15 proA+B+zzf:: Tn10 (TetR)/fhuA2 supE thi Δ(lac proAB) Δ(hsdMS mcrB) 5 (rk mk McrBC−): This strain is provided in the form of a bacterial culture containing 50% glycerol, non receptive cells, and stored at −70° C.; Streptavidin, freeze-dried powder 1.5 mg; Biotin: 10 mM 100 μL.
Depending on the number and types of target molecules that need to be simultaneously selected for library selection, the selection experiment is conducted on a single sterilized polystyrene culture dish, 12 or 24 well plates, and 96 well microplates. Each target molecule is coated with at least one plate (or well), and the amount given in the following method is the amount of the 60×15 mm culture dish, the content in parentheses is the amount of the plate, and the dosage of microplate is adjusted accordingly for other medium-sized wells. However, in each case, the number of added bacteriophages is the same: 1.5×10^11 virion. […]

[2] = test system: PC3 cell lines with low PSMA expression; assay: Immunofluorescence detection of KHL peptide (FITC marker) on PC3 cell line; format: binding; settings: FIG. 2
Description: as §1

T1 sequence (Q04609 whole entry): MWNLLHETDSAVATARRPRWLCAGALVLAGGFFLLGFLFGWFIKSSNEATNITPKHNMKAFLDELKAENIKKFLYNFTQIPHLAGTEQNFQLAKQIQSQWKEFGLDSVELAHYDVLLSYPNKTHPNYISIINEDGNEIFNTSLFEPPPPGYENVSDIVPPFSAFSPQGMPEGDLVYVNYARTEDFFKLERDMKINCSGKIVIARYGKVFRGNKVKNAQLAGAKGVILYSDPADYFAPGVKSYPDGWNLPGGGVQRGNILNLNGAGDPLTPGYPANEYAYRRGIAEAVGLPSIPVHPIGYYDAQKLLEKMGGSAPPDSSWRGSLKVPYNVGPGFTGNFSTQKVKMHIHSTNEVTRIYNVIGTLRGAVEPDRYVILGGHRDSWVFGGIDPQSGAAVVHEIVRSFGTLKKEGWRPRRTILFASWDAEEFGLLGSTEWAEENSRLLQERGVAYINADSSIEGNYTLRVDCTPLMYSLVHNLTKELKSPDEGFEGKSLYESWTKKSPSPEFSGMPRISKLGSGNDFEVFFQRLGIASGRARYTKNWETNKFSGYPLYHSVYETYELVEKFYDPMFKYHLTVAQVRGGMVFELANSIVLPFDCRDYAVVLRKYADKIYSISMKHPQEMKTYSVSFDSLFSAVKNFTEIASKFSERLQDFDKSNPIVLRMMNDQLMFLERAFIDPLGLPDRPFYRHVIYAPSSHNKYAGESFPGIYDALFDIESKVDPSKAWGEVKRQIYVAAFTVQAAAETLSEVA
PSMA, sequence (Q04609 whole entry, species assumed): as the sequence (Q04609 whole entry) above

- specificity of binding of KHL to the cell surface antigen PSMA ([1]; Lncap (high PSMA) versus PC3 (low PSMA)): high specificity
- binding to PSMA found by peptide library screening (PSMA): specifically binding to PSMA
Sequence: KHLHYHSSVRYG (also: FITC label, attachment site not given here) [FITC used as the fluorescent marker in immunofluorescence]
- cell surface fluorescence labeled by KHL ([1]; Lncap cell lines with high PSMA expression, FITC, FIG. 1): fluorescence displayed by KHL binding to the cell surface antigen PSMA
- cell surface fluorescence labeled by KHL [2]: only staining of the nucleus
